Experimental findings from patent US20090060916A1 (published 2009) are described below.

Numbering of substitutions follows the chain as printed. “And” between values parts separate entries of the source, which are not always exact repeats. Equal values may be shown once.

Usually IC50 stands for the concentration that inhibits the measured activity by half. A higher IC50 goes with weaker potency in that assay. Broadly, the EC50 is the midpoint of the concentration-response curve.

Assay [1] has as its target T1, human IL-13 (human, UniProt P35225 35-146, biotinylated on the Biacore chip).
T1 construct: also called hIL-13; recombinant human IL-13
Kind of assay: IL-13 Biacore. Background: Surface plasmon resonance follows binding to a sensor surface in real time, without labels.

In assay [2] the target is T2, human IL-4 (human, UniProt P05112 25-153, biotinylated in the receptor binding assay and on the Biacore chip).
T2 construct: also called interleukin-4; biotinylated IL-4
T2 sequence (looked up): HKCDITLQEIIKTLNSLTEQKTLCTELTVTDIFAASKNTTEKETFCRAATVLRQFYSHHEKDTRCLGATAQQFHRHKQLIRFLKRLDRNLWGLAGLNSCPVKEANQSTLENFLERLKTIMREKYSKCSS
Put plainly: DOM9 RBA (IL-4 RBA). The text has this: (§1) The wells were washed three times with 0.1% (v/v) Tween 20 in PBS, followed by three washes with PBS, before blocking with 2% (w/v) BSA in PBS. […] The reaction was stopped by the addition of HCl and the absorbance read at 450 nm.

Assay [3] deals with T1, human IL-13. Put plainly: Dom10 RBA (IL-13 sandwich ELISA per paragraph 471). The method, then:
A MAXISORP™ plate (high protein binding ELISA plate, Nunc, Denmark) was coated overnight with 2.5 μg/ml coating antibody (Module Set, Bender MedSystems, Vienna, Austria), then washed once with 0.05% (v/v) Tween 20 in PBS before blocking with 0.5% (w/v) BSA 0.05% (v/v) Tween 20 in PBS. […] The plate was then incubated with TMB substrate (KPL, Gaithersburg, USA), and the reaction was stopped by the addition of HCl and the absorbance read at 450 nm.
(ELISA stands for enzyme-linked immunosorbent assay.)

Assay [4] deals with T2, human IL-4. Kind of assay: IL-4 RBA: ELISA, IL-4R/Fc coated, biotinylated IL-4.
Source text: as §1

T1 sequence (P35225 35-146 limits assumed): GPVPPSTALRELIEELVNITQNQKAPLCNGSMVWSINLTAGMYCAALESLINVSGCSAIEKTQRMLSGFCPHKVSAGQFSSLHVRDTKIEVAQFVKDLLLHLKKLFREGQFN

B1: DOM9-112-210-ASTKGPS-DOM10-236 (bispecific antibody)
chain: EVQLLESGGGLVQPGGSLRLSCAASGFTFRNFGMGWVRQAPGKGLEWVSWIISSGTETYYADSVKGRFTISRDNSKNTLYLQMNSLRAEDTAVYYCAKSLGRFDYWGQGTLVTVSSASTKGPSEVQLLESGGGLVQPGGSLRLSCAASGFTFPKYDMMWVRQAPGKGLEWVSSIDHLGVNTYYADSVKGRFTISRDNSKNTLYLQMNSLRAEDTAVYYCAKESDWPSFDYWGQGTLVTVSS
notes: in-line fusion, from pDOM5
Consider B1, for which, in the assay with human IL-13 [1], the binding result is “binds”.

B2: DOM10-213-TVAAPS-DOM9-155-78 (bispecific antibody)
chain: DIQMTQSPSSLSASVGDRVTITCRASQAIPWGLNWYQQKPGKAPKLLIYDVSSLQSGVPSRFSGSGSGTDFTLTISSLQPEDFATYYCQQDIHIPMTFGQGTKVEIKRTVAAPSDIQMTQSPSSLSASVGDRVTITCRASRHIGDWLHWYQQKPGKAPKLLIAWASTLDSGVPSRFSGSGSGTDFTLTISSLQPEDFATYYCLQEGWGPPTFGQGTKVEIKR
notes: in-line fusion, from pDOM5
The molecule B2 displayed an IC50 in the assay with human IL-4 [2] of 6.91 nM. For the same molecule, in the assay with human IL-13 [3], the midpoint of the response, the EC50, lay at 62 nM.

B3: DOM10-215-TVAAPS-DOM9-155-78 (bispecific antibody)
chain: DIQMTQSPSSLSASVGDRVTITCRASQNIFADLNWYQQKPGKAPKLLIYMGSRLQSGVPSRFSGSGSGTDFTLTISSLQPEDFATYYCQQDYKFPLTFGQGTKVEIKRTVAAPSDIQMTQSPSSLSASVGDRVTITCRASRHIGDWLHWYQQKPGKAPKLLIAWASTLDSGVPSRFSGSGSGTDFTLTISSLQPEDFATYYCLQEGWGPPTFGQGTKVEIKR
notes: in-line fusion, from pDOM5
Turning to B3, in the assay with human IL-4 [2], the IC50 turned out to be 6.65 nM. The molecule also came in with a concentration giving a half-maximal response (EC50) in the assay with human IL-13 [3] of 10.8 nM.

B4: DOM9-112-210-ASTKGPS-DOM10-273 (bispecific antibody)
chain: EVQLLESGGGLVQPGGSLRLSCAASGFTFRNFGMGWVRQAPGKGLEWVSWIISSGTETYYADSVKGRFTISRDNSKNTLYLQMNSLRAEDTAVYYCAKSLGRFDYWGQGTLVTVSSASTKGPSEVQLLESGGGLVQPGGSLRLSCAASGFTFELEEMDWVRQAPGKGLEWVSSISGSGGSTYYADSVKGRFTISRDNSKNTLYLQMNSLRAEDTAVYYCAKAYTGFDYWGQGTLVTVSS
notes: in-line fusion, from pDOM5
As to B4, the IC50 with human IL-4 [2] stood at 10.5 nM. Besides, the midpoint of the response in the assay with human IL-13 [3], the EC50, lay at 4550 nM.

B5: DOM9-112-210-ASTKGPS-DOM10-277 (bispecific antibody)
chain: EVQLLESGGGLVQPGGSLRLSCAASGFTFRNFGMGWVRQAPGKGLEWVSWIISSGTETYYADSVKGRFTISRDNSKNTLYLQMNSLRAEDTAVYYCAKSLGRFDYWGQGTLVTVSSASTKGPSEVQLLESGGGLVQPGGSLRLSCAASGFTFSSYEMDWVRQAPGKGLEWVSTISADGVTTYYADSVKGRFTISRDNSKNTLYLQMNSLRAEDTAVYYCAKAFDAFDYWGQGTLVTVSS
notes: in-line fusion, from pDOM5
On to B5, for which the IC50 in the assay with human IL-4 [2] turned out to be 11.7 nM. In the assay with human IL-13 [3], it took 4380 nM to reach a half-maximal effect (EC50).

B6: DOM9-112-210-ASTKGPS-DOM10-416 (bispecific antibody)
chain: B5 chain with S153K, S154G, Y155S, V179R, T180E, A222S, F223Y, D224T, A225S
notes: in-line fusion, from pDOM5
B6 showed an IC50 with human IL-4 [2] of 7.27 nM. The EC50 with human IL-13 [3] was found to be 34400 nM.

B7: DOM9-44 (other)
VL: DIQMTQSPSSLSASVGDRVTITCRASQNINFWLRWYQQKPGKAPTLLIYDASALQSGVPSRFSGSGSGTDFTLTISSLQPEDFATYYCQQDFNPPYTFGQGTKVEIKR
notes: Vk dAb
Consider B7, for which the concentration for half-maximal inhibition (IC50) with human IL-4 [4] was 122 nM.

B8: DOM10-212-TVAAPS-DOM9-155-78 (bispecific antibody)
chain: DIQMTQSPSSLSASVGDRVTITCRASSVILNELHWYQQKPGKAPKLLISAVSRLQSGVPSRFSGSGSGTDFTLTISSLQPEDFATYYCLQTFWGPFTFGQGTKVEIKRTVAAPSDIQMTQSPSSLSASVGDRVTITCRASRHIGDWLHWYQQKPGKAPKLLIAWASTLDSGVPSRFSGSGSGTDFTLTISSLQPEDFATYYCLQEGWGPPTFGQGTKVEIKR
notes: in-line fusion, from pDOM5
As to B8, the binding result in the assay with human IL-13 [1] is “binds”.

B9: DOM10-270-TVAAPS-DOM9-155-78 (bispecific antibody)
chain: B8 chain with F96Y
notes: in-line fusion, from pDOM5
Molecule B9 showed a half-maximal inhibitory concentration (IC50) with human IL-4 [2] of 8.6 nM. For the same molecule, the EC50 in the assay with human IL-13 [3] is 37.2 nM.

B10: DOM9-112 (other)
VH: EVQLLESGGGLVQPGGSLRLSCAASGFTFRNYGMAWVRQAPGKGLEWVSWIDASGTETYYADSVKGRFTISRDNSKNTLYLQMNSLRAEDTAVYYCAKSLGRFDYWGQGTLVTVSS
notes: VH dAb
For B10, the figures for the IC50 with human IL-4 [2] and in the assay with human IL-4 [4] were 3.6 nM and 3 nM, respectively.

B11: DOM9-112-168 (other)
VH: B10 VH with D52E, A53G, S54G
notes: VH dAb
As to B11, the IC50 with human IL-4 [4] is 1.22 nM and 0.64 nM.

B12: DOM10-208-TVAAPS-DOM9-155-78 (bispecific antibody)
chain: DIQMTQSPSSLSASVGDRVTITCRASSPITDGLAWYQQKPGKAPKLLIDTGSRLQSGVPSRFSGSGSGTDFTLTISSLQPEDFATYYCRQGAMGSYTFGQGTKVEIKRTVAAPSDIQMTQSPSSLSASVGDRVTITCRASRHIGDWLHWYQQKPGKAPKLLIAWASTLDSGVPSRFSGSGSGTDFTLTISSLQPEDFATYYCLQEGWGPPTFGQGTKVEIKR
notes: in-line fusion, from pDOM5
B12 gave an IC50 with human IL-4 [2] of 8.18 nM. In the assay with human IL-13 [3], this molecule had an EC50 of 4240 nM.

B13: DOM9-112-210-ASTKGPS-DOM10-224 (bispecific antibody)
chain: EVQLLESGGGLVQPGGSLRLSCAASGFTFRNFGMGWVRQAPGKGLEWVSWIISSGTETYYADSVKGRFTISRDNSKNTLYLQMNSLRAEDTAVYYCAKSLGRFDYWGQGTLVTVSSASTKGPSDIQMTQSPSSLSASVGDRVTITCRASPNIAVDLAWYQQKPGKAPKLLIRGVSRLQSGVPSRFSGSGSGTDFTLTISSLQPEDFATYYCRQGAMGSYTFGQGTKVEIKR
notes: in-line fusion, from pDOM5
Turning to B13, the IC50 with human IL-4 [2] is 2.75 nM. In the assay with human IL-13 [3], the midpoint of the response, the EC50, lay at 4580 nM.

B14: DOM10-273-ASTKGPS-DOM9-155-78 (bispecific antibody)
chain: EVQLLESGGGLVQPGGSLRLSCAASGFTFELEEMDWVRQAPGKGLEWVSSISGSGGSTYYADSVKGRFTISRDNSKNTLYLQMNSLRAEDTAVYYCAKAYTGFDYWGQGTLVTVSSASTKGPSDIQMTQSPSSLSASVGDRVTITCRASRHIGDWLHWYQQKPGKAPKLLIAWASTLDSGVPSRFSGSGSGTDFTLTISSLQPEDFATYYCLQEGWGPPTFGQGTKVEIKR
notes: in-line fusion, from pDOM5
B14 showed a concentration for half-maximal inhibition (IC50) with human IL-4 [2] of 2.25 nM. In the assay with human IL-13 [3], this molecule yielded a 50% effective concentration (EC50) of 185 nM.

B15: DOM10-277-ASTKGPS-DOM9-155-78 (bispecific antibody)
chain: EVQLLESGGGLVQPGGSLRLSCAASGFTFSSYEMDWVRQAPGKGLEWVSTISADGVTTYYADSVKGRFTISRDNSKNTLYLQMNSLRAEDTAVYYCAKAFDAFDYWGQGTLVTVSSASTKGPSDIQMTQSPSSLSASVGDRVTITCRASRHIGDWLHWYQQKPGKAPKLLIAWASTLDSGVPSRFSGSGSGTDFTLTISSLQPEDFATYYCLQEGWGPPTFGQGTKVEIKR
notes: in-line fusion, from pDOM5
On to B15, for which the half-maximal inhibitory concentration (IC50) with human IL-4 [2] came out at 9.45 nM. In the assay with human IL-13 [3], this molecule yielded an EC50 of 648 nM.

B16: DOM10-416-ASTKGPS-DOM9-155-78 (bispecific antibody)
chain: B15 chain with S30K, S31G, Y32S, V56R, T57E, A99S, F100Y, D101T, A102S
notes: in-line fusion, from pDOM5
Turning to B16, the IC50 with human IL-4 [2] was determined as 5.88 nM. This molecule yielded an EC50 with human IL-13 [3] of 444 nM.

B17: DOM9-112-210-ASTKGPS-DOM10-213 (bispecific antibody)
chain: EVQLLESGGGLVQPGGSLRLSCAASGFTFRNFGMGWVRQAPGKGLEWVSWIISSGTETYYADSVKGRFTISRDNSKNTLYLQMNSLRAEDTAVYYCAKSLGRFDYWGQGTLVTVSSASTKGPSDIQMTQSPSSLSASVGDRVTITCRASQAIPWGLNWYQQKPGKAPKLLIYDVSSLQSGVPSRFSGSGSGTDFTLTISSLQPEDFATYYCQQDIHIPMTFGQGTKVEIKR
notes: in-line fusion, from pDOM5
B17 yielded a half-maximal inhibitory concentration (IC50) in the assay with human IL-4 [2] of 4.29 nM. The molecule further had an EC50 in the assay with human IL-13 [3] of 1150 nM.

B18: DOM9-112-210-ASTKGPS-DOM10-212 (bispecific antibody)
chain: EVQLLESGGGLVQPGGSLRLSCAASGFTFRNFGMGWVRQAPGKGLEWVSWIISSGTETYYADSVKGRFTISRDNSKNTLYLQMNSLRAEDTAVYYCAKSLGRFDYWGQGTLVTVSSASTKGPSDIQMTQSPSSLSASVGDRVTITCRASSVILNELHWYQQKPGKAPKLLISAVSRLQSGVPSRFSGSGSGTDFTLTISSLQPEDFATYYCLQTFWGPFTFGQGTKVEIKR
notes: in-line fusion, from pDOM5
As for B18, the IC50 in the assay with human IL-4 [2] was 3.21 nM. For the same molecule, the EC50 in the assay with human IL-13 [3] was 1000 nM.

B19: DOM9-112-210-DOM10-270 (bispecific antibody)
chain: B18 chain with F219Y
notes: in-line fusion, from pDOM5
In turn, B19 yielded an IC50 in the assay with human IL-4 [2] of 2.79 nM. Further, the midpoint of the response with human IL-13 [3], the EC50, lay at 398 nM.

B20: DOM9-155 (other)
VL: DIQMTQSPSSLSASVGDRVTITCRASLDIGDWLHWYQQKPGKAPKLLIGWGSGLQSGVPSRFSGSGSGTDFTLTISSLQPEDFATYYCLQEGLGPPTFGQGTKVEIKR
notes: Vk dAb
For B20, the IC50 in the assay with human IL-4 [4] stood at 100 nM.

B21: DOM10-236-ASTKGPS-DOM9-155-78 (bispecific antibody)
chain: EVQLLESGGGLVQPGGSLRLSCAASGFTFPKYDMMWVRQAPGKGLEWVSSIDHLGVNTYYADSVKGRFTISRDNSKNTLYLQMNSLRAEDTAVYYCAKESDWPSFDYWGQGTLVTVSSASTKGPSDIQMTQSPSSLSASVGDRVTITCRASRHIGDWLHWYQQKPGKAPKLLIAWASTLDSGVPSRFSGSGSGTDFTLTISSLQPEDFATYYCLQEGWGPPTFGQGTKVEIKR
notes: in-line fusion, from pDOM5
As to B21, in the assay with human IL-4 [2], the IC50 amounted to 2.54 nM. For the same molecule, the EC50 with human IL-13 [3] was 372 nM.
